{"source": "patent US20080292615", "key": {"[1]": {"target": "Envoplakin, Q92817", "sequence (Q92817 whole entry)": "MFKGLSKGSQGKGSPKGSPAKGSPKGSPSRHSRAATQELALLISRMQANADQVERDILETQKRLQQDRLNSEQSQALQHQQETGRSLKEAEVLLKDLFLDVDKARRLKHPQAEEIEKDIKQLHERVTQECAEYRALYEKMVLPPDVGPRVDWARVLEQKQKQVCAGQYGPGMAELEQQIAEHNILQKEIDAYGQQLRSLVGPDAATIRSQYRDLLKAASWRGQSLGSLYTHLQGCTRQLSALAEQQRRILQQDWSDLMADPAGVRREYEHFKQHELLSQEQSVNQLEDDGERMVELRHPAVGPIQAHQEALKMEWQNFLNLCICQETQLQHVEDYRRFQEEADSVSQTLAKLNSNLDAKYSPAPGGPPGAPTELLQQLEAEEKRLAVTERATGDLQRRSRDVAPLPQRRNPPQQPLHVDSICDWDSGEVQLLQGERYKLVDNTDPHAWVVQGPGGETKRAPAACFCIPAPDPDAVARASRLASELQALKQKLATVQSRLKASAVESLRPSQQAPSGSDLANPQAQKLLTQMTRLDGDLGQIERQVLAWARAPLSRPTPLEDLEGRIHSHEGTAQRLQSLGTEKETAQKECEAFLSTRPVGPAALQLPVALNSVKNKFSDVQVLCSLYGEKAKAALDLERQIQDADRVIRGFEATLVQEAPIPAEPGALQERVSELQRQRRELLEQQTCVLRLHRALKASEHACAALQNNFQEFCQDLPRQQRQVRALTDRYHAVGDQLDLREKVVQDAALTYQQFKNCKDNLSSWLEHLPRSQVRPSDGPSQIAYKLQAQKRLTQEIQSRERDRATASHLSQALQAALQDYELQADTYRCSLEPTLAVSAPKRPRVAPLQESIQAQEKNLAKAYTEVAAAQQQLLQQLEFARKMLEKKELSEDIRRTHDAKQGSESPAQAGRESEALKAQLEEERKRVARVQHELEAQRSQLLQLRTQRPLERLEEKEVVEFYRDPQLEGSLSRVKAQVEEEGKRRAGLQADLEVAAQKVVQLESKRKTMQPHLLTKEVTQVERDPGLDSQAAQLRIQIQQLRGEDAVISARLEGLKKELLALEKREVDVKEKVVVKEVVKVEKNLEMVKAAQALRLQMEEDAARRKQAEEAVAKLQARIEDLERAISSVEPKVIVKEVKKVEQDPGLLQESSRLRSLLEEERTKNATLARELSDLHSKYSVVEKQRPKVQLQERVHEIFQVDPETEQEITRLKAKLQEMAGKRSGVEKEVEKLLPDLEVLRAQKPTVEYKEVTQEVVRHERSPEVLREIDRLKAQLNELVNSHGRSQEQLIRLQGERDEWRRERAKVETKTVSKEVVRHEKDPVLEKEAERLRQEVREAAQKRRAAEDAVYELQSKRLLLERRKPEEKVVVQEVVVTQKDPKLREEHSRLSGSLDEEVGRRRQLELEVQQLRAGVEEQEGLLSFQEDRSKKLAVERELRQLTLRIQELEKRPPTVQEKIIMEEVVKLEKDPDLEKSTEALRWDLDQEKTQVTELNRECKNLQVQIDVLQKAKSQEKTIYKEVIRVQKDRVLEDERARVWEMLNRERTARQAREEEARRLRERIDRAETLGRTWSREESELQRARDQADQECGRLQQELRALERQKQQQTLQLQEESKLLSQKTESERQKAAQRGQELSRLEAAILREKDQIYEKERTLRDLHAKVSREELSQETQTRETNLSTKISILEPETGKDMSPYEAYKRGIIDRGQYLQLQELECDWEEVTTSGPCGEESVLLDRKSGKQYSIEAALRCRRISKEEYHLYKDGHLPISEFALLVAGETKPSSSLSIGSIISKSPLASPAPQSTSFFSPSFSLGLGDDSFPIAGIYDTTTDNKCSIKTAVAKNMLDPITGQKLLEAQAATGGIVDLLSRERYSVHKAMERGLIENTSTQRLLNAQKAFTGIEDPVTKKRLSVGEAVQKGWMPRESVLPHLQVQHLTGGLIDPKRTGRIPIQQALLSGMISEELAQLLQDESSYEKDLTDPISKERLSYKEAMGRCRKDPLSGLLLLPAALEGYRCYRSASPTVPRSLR"}, "[2]": {"target": "Desmoplakin, P15924", "sequence (P15924 whole entry)": "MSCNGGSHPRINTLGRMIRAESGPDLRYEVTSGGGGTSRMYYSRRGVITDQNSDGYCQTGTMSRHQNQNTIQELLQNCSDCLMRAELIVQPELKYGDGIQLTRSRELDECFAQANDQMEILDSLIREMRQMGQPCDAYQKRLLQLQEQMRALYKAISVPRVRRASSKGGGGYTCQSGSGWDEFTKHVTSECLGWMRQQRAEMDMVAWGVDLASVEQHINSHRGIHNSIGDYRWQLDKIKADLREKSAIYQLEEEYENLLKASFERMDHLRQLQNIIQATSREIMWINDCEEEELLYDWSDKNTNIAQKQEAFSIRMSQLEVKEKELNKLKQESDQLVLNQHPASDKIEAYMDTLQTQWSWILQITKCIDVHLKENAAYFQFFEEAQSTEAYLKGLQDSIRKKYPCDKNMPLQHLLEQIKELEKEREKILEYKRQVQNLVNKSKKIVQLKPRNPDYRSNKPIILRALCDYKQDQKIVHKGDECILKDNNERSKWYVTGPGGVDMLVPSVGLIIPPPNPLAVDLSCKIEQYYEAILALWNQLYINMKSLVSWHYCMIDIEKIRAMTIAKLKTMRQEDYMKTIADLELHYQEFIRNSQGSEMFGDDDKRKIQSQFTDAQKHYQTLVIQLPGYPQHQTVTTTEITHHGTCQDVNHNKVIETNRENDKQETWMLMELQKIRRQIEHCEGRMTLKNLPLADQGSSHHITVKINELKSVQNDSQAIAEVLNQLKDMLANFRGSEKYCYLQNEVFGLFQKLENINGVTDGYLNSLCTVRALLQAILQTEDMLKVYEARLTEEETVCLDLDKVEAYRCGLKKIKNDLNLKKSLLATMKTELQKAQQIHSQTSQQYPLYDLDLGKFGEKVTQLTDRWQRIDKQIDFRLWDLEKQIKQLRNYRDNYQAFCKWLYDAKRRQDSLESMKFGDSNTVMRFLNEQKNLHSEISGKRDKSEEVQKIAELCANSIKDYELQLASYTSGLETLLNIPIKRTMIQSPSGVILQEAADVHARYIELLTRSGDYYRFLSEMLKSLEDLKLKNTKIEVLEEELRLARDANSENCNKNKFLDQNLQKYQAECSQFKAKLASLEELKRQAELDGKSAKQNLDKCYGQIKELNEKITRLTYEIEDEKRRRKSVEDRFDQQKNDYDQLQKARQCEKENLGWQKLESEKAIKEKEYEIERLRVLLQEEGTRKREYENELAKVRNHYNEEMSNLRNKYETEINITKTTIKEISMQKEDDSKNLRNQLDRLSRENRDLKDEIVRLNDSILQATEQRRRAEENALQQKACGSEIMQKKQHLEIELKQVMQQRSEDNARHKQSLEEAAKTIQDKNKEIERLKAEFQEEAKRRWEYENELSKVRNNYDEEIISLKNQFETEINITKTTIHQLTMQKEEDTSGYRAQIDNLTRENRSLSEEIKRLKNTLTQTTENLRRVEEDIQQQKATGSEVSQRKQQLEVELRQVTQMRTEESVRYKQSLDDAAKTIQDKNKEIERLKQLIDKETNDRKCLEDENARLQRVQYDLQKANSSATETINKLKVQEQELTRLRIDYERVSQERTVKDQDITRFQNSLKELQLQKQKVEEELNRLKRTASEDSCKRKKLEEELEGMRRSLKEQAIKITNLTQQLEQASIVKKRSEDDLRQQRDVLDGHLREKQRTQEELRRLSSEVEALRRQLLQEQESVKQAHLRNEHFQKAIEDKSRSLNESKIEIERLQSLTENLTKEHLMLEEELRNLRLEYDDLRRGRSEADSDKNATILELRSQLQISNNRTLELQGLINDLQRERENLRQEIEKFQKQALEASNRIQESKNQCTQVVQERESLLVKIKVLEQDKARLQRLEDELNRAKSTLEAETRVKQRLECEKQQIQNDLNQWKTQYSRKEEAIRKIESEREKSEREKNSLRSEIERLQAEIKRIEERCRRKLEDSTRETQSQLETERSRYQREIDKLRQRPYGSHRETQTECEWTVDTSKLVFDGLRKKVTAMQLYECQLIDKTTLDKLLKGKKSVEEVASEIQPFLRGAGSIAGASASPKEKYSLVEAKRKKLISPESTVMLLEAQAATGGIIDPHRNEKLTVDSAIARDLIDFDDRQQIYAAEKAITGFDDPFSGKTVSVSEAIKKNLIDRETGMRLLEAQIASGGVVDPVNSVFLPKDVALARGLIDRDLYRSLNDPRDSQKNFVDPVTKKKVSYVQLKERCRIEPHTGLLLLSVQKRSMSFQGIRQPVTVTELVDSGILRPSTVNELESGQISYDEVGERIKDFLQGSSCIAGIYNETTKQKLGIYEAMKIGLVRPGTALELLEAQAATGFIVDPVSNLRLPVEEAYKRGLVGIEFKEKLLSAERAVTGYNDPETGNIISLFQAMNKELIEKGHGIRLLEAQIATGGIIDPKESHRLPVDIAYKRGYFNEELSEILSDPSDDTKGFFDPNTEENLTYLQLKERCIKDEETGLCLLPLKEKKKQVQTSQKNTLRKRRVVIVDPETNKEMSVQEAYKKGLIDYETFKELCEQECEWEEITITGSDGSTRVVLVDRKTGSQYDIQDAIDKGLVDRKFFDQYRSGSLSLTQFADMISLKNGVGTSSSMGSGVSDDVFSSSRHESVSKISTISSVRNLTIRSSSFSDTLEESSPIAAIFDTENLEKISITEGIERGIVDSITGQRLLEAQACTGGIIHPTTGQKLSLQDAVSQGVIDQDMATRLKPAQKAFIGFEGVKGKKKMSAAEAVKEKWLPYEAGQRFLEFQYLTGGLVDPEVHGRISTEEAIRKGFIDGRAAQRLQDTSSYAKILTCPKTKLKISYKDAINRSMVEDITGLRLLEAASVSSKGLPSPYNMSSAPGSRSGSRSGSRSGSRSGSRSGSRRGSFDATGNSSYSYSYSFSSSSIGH"}, "[3]": {"target": "T1, Plakoglobin, P14923", "T1 chain": "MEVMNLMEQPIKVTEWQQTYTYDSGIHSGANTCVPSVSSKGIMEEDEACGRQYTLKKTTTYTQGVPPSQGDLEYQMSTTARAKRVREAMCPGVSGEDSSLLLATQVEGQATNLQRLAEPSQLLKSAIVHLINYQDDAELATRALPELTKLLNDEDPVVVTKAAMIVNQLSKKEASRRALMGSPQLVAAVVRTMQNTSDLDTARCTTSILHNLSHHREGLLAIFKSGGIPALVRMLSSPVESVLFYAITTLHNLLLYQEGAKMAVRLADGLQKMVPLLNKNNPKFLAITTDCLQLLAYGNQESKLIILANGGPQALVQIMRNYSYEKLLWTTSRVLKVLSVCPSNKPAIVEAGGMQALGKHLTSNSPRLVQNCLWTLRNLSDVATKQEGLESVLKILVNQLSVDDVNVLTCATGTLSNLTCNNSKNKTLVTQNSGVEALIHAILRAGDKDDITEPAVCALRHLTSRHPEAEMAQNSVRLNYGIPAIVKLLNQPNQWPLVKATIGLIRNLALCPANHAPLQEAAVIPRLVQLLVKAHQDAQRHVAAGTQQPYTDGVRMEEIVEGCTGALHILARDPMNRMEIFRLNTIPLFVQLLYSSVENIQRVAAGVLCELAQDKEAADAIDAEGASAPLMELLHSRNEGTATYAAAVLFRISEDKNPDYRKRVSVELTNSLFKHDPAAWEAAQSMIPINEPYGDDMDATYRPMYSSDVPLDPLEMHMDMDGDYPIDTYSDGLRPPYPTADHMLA"}, "[4]": {"target": "T2, Corneodesmosin, Q15517", "T2 chain": "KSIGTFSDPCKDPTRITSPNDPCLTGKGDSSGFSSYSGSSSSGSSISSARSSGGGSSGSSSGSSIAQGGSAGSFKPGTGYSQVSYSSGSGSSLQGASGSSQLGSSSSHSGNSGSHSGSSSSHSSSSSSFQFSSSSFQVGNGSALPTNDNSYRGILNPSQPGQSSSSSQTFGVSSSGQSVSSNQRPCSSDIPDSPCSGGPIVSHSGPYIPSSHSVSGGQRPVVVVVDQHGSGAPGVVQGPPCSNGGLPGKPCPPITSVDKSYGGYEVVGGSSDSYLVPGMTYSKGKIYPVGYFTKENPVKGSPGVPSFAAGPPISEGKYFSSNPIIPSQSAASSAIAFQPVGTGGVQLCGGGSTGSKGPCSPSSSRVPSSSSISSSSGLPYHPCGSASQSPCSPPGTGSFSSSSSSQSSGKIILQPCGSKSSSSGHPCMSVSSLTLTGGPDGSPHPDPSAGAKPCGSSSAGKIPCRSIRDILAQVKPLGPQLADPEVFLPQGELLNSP"}, "[5]": {"target": "T3, Desmoglein, Q02413", "T3 chain": "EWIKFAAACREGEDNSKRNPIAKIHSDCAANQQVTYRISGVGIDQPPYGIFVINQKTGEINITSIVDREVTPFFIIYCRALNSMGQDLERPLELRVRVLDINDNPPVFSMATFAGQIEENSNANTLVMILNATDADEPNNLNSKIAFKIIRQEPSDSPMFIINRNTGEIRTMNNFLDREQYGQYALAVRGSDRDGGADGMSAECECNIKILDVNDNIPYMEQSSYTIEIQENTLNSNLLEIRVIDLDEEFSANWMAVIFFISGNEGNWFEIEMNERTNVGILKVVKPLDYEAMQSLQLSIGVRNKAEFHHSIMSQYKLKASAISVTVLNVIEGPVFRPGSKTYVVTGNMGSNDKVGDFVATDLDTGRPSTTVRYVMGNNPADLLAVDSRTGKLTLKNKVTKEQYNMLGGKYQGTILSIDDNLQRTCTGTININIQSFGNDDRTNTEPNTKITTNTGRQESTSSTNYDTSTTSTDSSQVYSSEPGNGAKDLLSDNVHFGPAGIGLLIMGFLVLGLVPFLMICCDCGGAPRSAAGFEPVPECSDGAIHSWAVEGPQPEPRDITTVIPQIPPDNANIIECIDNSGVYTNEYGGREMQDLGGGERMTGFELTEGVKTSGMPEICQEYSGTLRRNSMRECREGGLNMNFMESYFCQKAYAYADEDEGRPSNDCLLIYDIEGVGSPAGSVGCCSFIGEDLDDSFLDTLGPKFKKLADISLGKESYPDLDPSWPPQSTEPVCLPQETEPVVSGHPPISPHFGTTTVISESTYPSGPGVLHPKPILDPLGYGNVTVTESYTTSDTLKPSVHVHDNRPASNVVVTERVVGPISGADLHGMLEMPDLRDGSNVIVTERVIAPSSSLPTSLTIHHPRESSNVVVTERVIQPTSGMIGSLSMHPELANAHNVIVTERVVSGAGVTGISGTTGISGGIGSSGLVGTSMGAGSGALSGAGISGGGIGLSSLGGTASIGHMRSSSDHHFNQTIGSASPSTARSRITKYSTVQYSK"}, "[6]": {"target": "T4, Desmocollin 1, Q08554", "T4 chain": "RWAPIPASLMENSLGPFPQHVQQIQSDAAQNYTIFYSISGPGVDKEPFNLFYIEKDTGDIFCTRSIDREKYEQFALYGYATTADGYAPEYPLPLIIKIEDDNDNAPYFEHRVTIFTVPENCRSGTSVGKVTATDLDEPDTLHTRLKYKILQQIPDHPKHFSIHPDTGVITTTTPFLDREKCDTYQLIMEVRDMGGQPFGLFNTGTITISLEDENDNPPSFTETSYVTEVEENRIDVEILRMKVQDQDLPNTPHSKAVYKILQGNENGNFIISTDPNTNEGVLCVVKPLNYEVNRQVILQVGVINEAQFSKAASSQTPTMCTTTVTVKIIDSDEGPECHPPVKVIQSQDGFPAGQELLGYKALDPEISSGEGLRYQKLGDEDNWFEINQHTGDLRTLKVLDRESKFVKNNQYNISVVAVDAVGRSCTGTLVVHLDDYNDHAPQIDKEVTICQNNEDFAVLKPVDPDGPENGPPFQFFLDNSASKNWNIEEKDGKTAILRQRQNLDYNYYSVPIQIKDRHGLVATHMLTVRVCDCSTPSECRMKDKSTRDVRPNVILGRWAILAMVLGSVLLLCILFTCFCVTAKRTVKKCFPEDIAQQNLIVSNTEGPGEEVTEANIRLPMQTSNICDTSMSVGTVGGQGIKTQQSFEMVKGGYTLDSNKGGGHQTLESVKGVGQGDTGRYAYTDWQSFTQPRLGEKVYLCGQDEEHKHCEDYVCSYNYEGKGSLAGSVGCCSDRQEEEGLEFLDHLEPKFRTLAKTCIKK"}}, "data": [{"protein": "recombinant Stratum Corneum Chymotryptic Enzyme (SCCE), active form obtained from recombinant ProSCCE with agarose-bound trypsin (protein) EEAQGDKIIDGAPCARGSHPWQVALLSGNQLHCGGVLVNERWVLTAAHCKMNEYTVHLGSDTLGDRRAQRIKASKSFRHPGYSTQTHVNDLMLVKLNSQARLSSMVKKVRLPSRCEPPGTTCTVSGWGTTTSPDVTFPSDLMCVDVKLISPQDCTKVYKDLLENSMLCAGIPDSKKNACNGDSGGPLVCRGTLQGLVSWGTFPCGQPNDPGVYTQVCKFTKWINDTMKKHR", "values": [{"measurement": "proteolysis (immunoblot of human epidermis extract incubated with active SCCE)", "setting": "[1]", "value": "Envoplakin is found to be proteolysed by SCCE."}, {"measurement": "proteolysis (immunoblot of human epidermis extract incubated with active SCCE)", "setting": "[2]", "value": "Desmoplakin is found to be proteolysed by SCCE."}, {"measurement": "proteolysis (immunoblot of human epidermis extract incubated with active SCCE)", "setting": "[3]", "value": "Plakoglobin is found to be proteolysed by recombinant SCCE."}, {"measurement": "proteolysis (immunoblot of human epidermis extract incubated with active SCCE)", "setting": "[4]", "value": "Corneodesmosin is found to be proteolysed by recombinant SCCE."}, {"measurement": "proteolysis (immunoblot of human epidermis extract incubated with active SCCE)", "setting": "[5]", "value": "Desmoglein is found to be proteolysed by SCCE."}, {"measurement": "proteolysis (immunoblot of human epidermis extract incubated with active SCCE)", "setting": "[6]", "value": "Desmocollin is found to be proteolysed by SCCE."}]}]}
